In this assay the target is human IL-2 (Miltenyi) (human) (UniProt P60568). Description: SPR.
Sequence of human IL-2 (Miltenyi) (human) (P60568 21-153 limits assumed): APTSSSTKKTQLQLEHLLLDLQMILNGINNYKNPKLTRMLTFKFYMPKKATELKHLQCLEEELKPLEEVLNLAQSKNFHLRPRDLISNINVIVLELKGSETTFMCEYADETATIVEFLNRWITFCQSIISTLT

B1: GS_hCD25.d (protein, part only; not given: Fusion partner and linker, part only)
chain, part: ELCDDDPPEIPHATFKAMAYKEGTMLNCECKRGFRRIKSGSLYMLCTGNSSHSSWDNQCQCTSSATRNTTKQVTPQPEEQKERKTTEMQSPMQPVDQASLPGHCREPPPWENEATERIYHFVVGQMVYYQCVQGYRALHRGPAESVCKMTHGKTRWTQPQLICTG
For the molecule B1, the Kd worked out at 12 nM, the koff came to 0.063 s⁻¹ and the kon worked out at 5.4e+06 M⁻¹ s⁻¹.

B2: GS_hCD25.b (protein, part only; not given: Fusion partner and linker, part only)
chain, part: ELCDDDPPEIPHATFKAMAYKEGTMLNCECKRGFRRIKSGSLYMLCTGNSSHSSWDNQCQCTSSATRNTTKQVTPQPEEQKERKTTEMQSPMQPVDQASLPGHCREPPPWENEATERIYHFVVGQMVYYQCVQGYRALHRGPAESVCKMTHGKTRWTQPQLICTGEMETSQFPGEEKPQASPEGRPESETSCLVTTTDFQIQ
Take B2: the Kd is 12 nM and the on-rate constant (kon) worked out at 1.1e+07 M⁻¹ s⁻¹.

(Values after patent US20230416364A1.)
